B1: Centrosomal protein POC5 (Homo sapiens), Q8NA72 (parent)
chain: MSSDEEKYSLPVVQNDSSRGSSVSSNLQEEYEELLHYAIVTPNIEPCASQSSHPKGELVPDVRISTIHDILHSQGNNSEVRETAIEVGKGCDFHISSHSKTDESSPVLSPRKPSHPVMDFFSSHLLADSSSPATNSSHTDAHEILVSDFLVSDENLQKMENVLDLWSSGLKTNIISELSKWRLNFIDWHRMEMRKEKEKHAAHLKQLCNQINELKELQKTFEISIGRKDEVISSLSHAIGKQKEKIELMRTFFHWRIGHVRARQDVYEGKLADQYYQRTLLKKVWKVWRSVVQKQWKDVVERACQARAEEVCIQISNDYEAKVAMLSGALENAKAEIQRMQHEKEHFEDSMKKAFMRGVCALNLEAMTIFQNRNDAGIDSTNNKKEEYGPGVQGKEHSAHLDPSAPPMPLPVTSPLLPSPPAAVGGASATAVPSAASMTSTRAASASSVHVPVSALGAGSAATAASEEMYVPRVVTSAQQKAGRTITARITGRCDFASKNRISSSLAIMGVSPPMSSVVVEKHHPVTVQTIPQATAAKYPRTIHPESSTSASRSLGTRSAHTQSLTSVHSIKVVD

Variants of: B1
Settings: with tba4a_human TUBA4A

| effect of a mutation on the interaction | Variant |
| --- | --- |
| decreasing interaction strength | MSSDEEKYSLPVVQNDSSRGSSVSSNLQEEYEELLHYAIVTPNIEPCASQSSHPKGELVPDVRISTIHDILHSQGNNSEVRETAIEVGKGCDFHISSHSKTDESSPVLSPRKPSHPVMDFFSSHLLADSSSPATNSSHTDAHEILVSDFLVSDENLQKMENVLDLWSSGLKTNIISELSKWRLNFIDWHRMEMRKEKEKHAAHLKQLCNQINELKELQKTFEISIGRKDEVISSLSHAIGKQKEKIELMRTFFHWRIGHVRARQDVYEGKLADQYYQRTLLKKVWKVWRSVVQKQWKDVVERACQARAEEVCIQISNDYEAKVAMLSGALENAKAEIQRMQHEKEHFEDSMKKAFMRGVCALNLEAMTIFQNRNDAGIDSTNNKKEEYGPGVQGKEHSAHLDPSAPPMPLPVTSPLLPSPPAAVGGASVTAVPSAASMTSTRAASASSVHVPVSALGAGSAATAASEEMYVPRVVTSAQQKAGRTITARITGRCDFASKNRISSSLAIMGVSPPMSSVVVEKHHPVTVQTIPQATAAKYPRTIHPESSTSASRSLGTRSAHTQSLTSVHSIKVVD [A429V] |

Variants of: B1
Settings: with tba4a_human TUBA4A
Remark: another data set of the same source

| effect of a mutation on the interaction | Variant |
| --- | --- |
| disrupting interaction strength | MSSDEEKYSLPVVQNDSSRGSSVSSNLQEEYEELLHYAIVTPNIEPCASQSSHPKGELVPDVRISTIHDILHSQGNNSEVRETAIEVGKGCDFHISSHSKTDESSPVLSPRKPSHPVMDFFSSHLLADSSSPATNSSHTDAHEILVSDFLVSDENLQKMENVLDLWSSGLKTNIISELSKWRLNFIDWHRMEMRKEKEKHAAHLKQLCNQINELKELQKTFEISIGRKDEVISSLSHAIGKQKEKIELMRTFFHWRIGHVRARQDVYEGKLADQYYQRTLLKKVWKVWRSVVQKQWKDVVERACQARAEEVCIQISNDYEAKVAMLSGALENAKAEIQRMQHEKEHFEDSMKKAFMRGVCALNLEAMTIFQNRNDAGIDSTNNKKEEYGPGVQGKEHSAHLDPSAPPMPLPVTSPLLPSPPAAVGGASVTAVPSAASMTSTRAASASSVHVPVSALGAGSAATAASEEMYVPRVVTSAQQKAGRTITARITGRCDFASKNRISSSLAIMGVSPPMSSVVVEKHHPVTVQTIPQATAAKYPRTIHPESSTSASRSLGTRSAHTQSLTSVHSIKVVD [A429V] |

Source: IntAct's records for PubMed 30845169
